Experiments:
[1] = Nano-structure characterization of peptide conjugates (Tyndall effect, DLS, zeta potential, TEM); type: physicochemical; conditions: 50 μM in H2O (2% DMSO), sonicated 10 min; mean of 3 measurements
Description: The second-order rate constant for the labeling reactions between tetrazine 1 and Cys was determined at 25 °C in PB (30% MeCN, 20 mM, pH 8.0) under second-order conditions using a 6000+ (Quawell) UV-Vis spectrophotometer. The concentrations of cysteine and tetrazine were identical. The specific difference in absorption wavelength (300 nm) between 1 and Cys-1 was measured over time. The second-order rate constant k2 was calculated from the slope of a plot of (1/c – 1/c0) versus time.
5. Competitive labeling reaction with other nucleophilic amino acids
For the competitive labeling experiment, 10 equiv. (2 mM) of N-Fmoc-Lys, N-Fmoc-Arg, Ser, Tyr, and 1.3 equiv. […] The resulting solution was maintained at 25 °C and monitored by LC –MS. […]
Each voTz analogue (1.1 equiv.) was added to a 0.25 mL vial containing solvent. […] The chromatogram peak areas of all relevant Cys -containing species were integrated, and the yiel d was determined using the following equation: Yield (%) = Iproduct/(Istarting + Iproduct + Ioxidation + Iside product) × 100, where Istarting, Iproduct, Ioxidation, and Iside product respectively represent the average ion counts of remaining starting material, product, oxidized starting material and any side product, if present 2. […]
DLS analyses and particle zeta potential values were determined using a Nano ZS ZEN 3690 instrument (Malvern […]

[2] = test system: B16F10 cells; experiment: Cell uptake by fluorescence imaging, B16F10; type: cell-based, Mouse; conditions: B16F10 pre-treated with 50-fold excess of unmodified RGD, 10 μM, 2 h
Description: B16F10 cells were cultured for 48 h. […]
12.1 Calculation of the fluorescence coefficient (F c)
The Fc was the radio calculated
12.2 Uptake calculation of the B16F10 cells […]
deviation were analyzed using Origin Pro 2015.
B16F10 cells, characterized by α vβ3
Following the incubation period, the
Subsequently, the cells were trypsinized and underwent three PBS rinses.
12 .4 Cell uptake analysis by fluorescence imaging

[3] = Accumulation of RGD-Dox at various time points in tumor tissues; type: in vivo, mice; conditions: for tissue level at time molar at 0.5 h / tissue level at time molar at 1 h / tissue level at time molar at 2 h / tissue level at time molar at 4 h / tissue level at time molar at 6 h: BALB/c nude, mouse, tumor tissue, iv, 3.67 umol⸱/kg
Description: 13. In vivo anticancer efficacy
13.1 The accumulation of RGD-Dox at various time points in tumor tissues When the tumor volume reached approximately 400 mm3, five mice in each group received an i.v. injection of 3.67 μmol⸱kg-1 RGD-Dox. After various time intervals, the mice were sacrificed, and tumor tissues were dissected. About 0.5 to 1 g of tissue was ground into a homogenate, and proteins were precipitated by the adding two volumes of acetonitrile (1 mL). After centrifugation, the supernatant was removed, concentrated to 100 µL, and 20 µL was used for HPLC–MS analysis. The RGD-Dox concentration in the sample was determined from a standard curve of the peak area of the characteristic absorption of RGD-Dox at 520 nm. […]

[4] = test system: B16F10 cells; experiment: Cellular uptake of RGD-Dox over various time intervals using flow cytometry; type: cell-based, Mouse

In the case of `COc1cccc2c1C(=O)c1c(O)c3c(c(O)c1C2=O)C[C@@](O)(C(=O)CO)C[C@@H]3O[C@H]1C[C@H](NC(=O)OCc2nnc(CCSC[C@@H]3NC(=O)[C@@H](Cc4ccc(O)cc4)NC(=O)[C@H](CC(=O)O)NC(=O)CNC(=O)[C@H](CCCNC(=N)N)NC3=O)nn2)[C@H](O)[C@H](C)O1` [RGD-Dox], the “average particle diameter (DLS)” value [1] is reported as 168 nm, the “cellular fluorescence (uptake) after blocking with unmodified RGD” value [2] is reported as “negligible fluorescence” and the “accumulation at the tumor tissue over time” value ([3]; 3.67 μmol·kg^−1 i.v., 0-6 hours, HPLC–MS 520 nm, n = 5) is reported as “continuous increase in the accumulation of RGD-Dox at the tumor site within the first 0-2 hours, followed by a gradual decrease”. The “accumulation of RGD-Dox in tumor tissues” value ([3]; 6 h, Data 3) was 0.09596 nmol/g, the tissue level at time molar at 0.5 h ([3]; Data 1) was 0.253 nmol/g and the tissue level at time molar at 0.5 h ([3]; Data 2) was 0.122 nmol/g. It also gave a tissue level at time molar at 0.5 h ([3]; Data 3) of 0.145 nmol/g, a tissue level at time molar at 0.5 h ([3]; Data 4) of 0.161 nmol/g and a tissue level at time molar at 0.5 h ([3]; Data 5) of 0.185 nmol/g. The tissue level at time molar at 1 h ([3]; Data 1) was 0.311 nmol/g, the tissue level at time molar at 1 h ([3]; Data 2) was 0.321 nmol/g and the tissue level at time molar at 1 h ([3]; Data 3) was 0.226 nmol/g. It also gave a tissue level at time molar at 1 h ([3]; Data 4) of 0.407 nmol/g, a tissue level at time molar at 1 h ([3]; Data 5) of 0.29 nmol/g and a tissue level at time molar at 2 h ([3]; Data 1) of 0.249 nmol/g. It also gave a tissue level at time molar at 2 h ([3]; Data 2) of 0.239 nmol/g, a tissue level at time molar at 2 h ([3]; Data 3) of 0.408 nmol/g and a tissue level at time molar at 2 h ([3]; Data 4) of 0.321 nmol/g. The tissue level at time molar at 2 h ([3]; Data 5) was 0.3 nmol/g, the tissue level at time molar at 4 h ([3]; Data 1) was 0.296 nmol/g and the tissue level at time molar at 4 h ([3]; Data 2) was 0.245 nmol/g. It also gave a tissue level at time molar at 4 h ([3]; Data 3) of 0.274 nmol/g, a tissue level at time molar at 4 h ([3]; Data 4) of 0.16 nmol/g and a tissue level at time molar at 4 h ([3]; Data 5) of 0.217 nmol/g. The tissue level at time molar at 6 h ([3]; 6 h, Data 1) was 0.0949 nmol/g, the tissue level at time molar at 6 h ([3]; 6 h, Data 2) was 0.0855 nmol/g and the tissue level at time molar at 6 h ([3]; 6 h, Data 4) was 0.0867 nmol/g. For the same compound, the tissue level at time molar at 6 h ([3]; 6 h, Data 5) was 0.129 nmol/g, the “cellular uptake of RGD-Dox (flow cytometry)” value (“cellular uptake of RGD-Dox” for short) ([4]; 0.5 h, Data 2) was 4811 and the “cellular uptake of RGD-Dox” value ([4]; 1 h, Data 1) was 7075. The “cellular uptake of RGD-Dox” value ([4]; 1 h, Data 2) was 6214, the “cellular uptake of RGD-Dox” value ([4]; 2 h, Data 2) was 11247 and the “cellular uptake of RGD-Dox” value ([4]; 2 h, Data 3) was 9887. For the same compound, the “cellular uptake of RGD-Dox” value ([4]; 3 h, Data 1) was 12006, the “cellular uptake of RGD-Dox” value ([4]; 3 h, Data 2) was 12578 and the “cellular uptake of RGD-Dox” value ([4]; 4 h, Data 2) was 13144.

From paper PMC10987521, “An all-in-one tetrazine reagent for cysteine-selective labeling and bioorthogonal activable prodrug construction” (Nature Communications, 2024)
